In test [1] the target is T1, Biotinylated murine CD3E&D (murine, UniProt P22646 22-108; P04235 22-105, biotin label).
T1 construct: also called CDD-M82W5
As to the kind of experiment: BLI (Octet), biotinylated CD3 on SA sensor. A general note: BLI is a label-free optical method that tracks binding on a fibre tip over time.
Description: The binding kinetics between proteins and antibodies was analyzed by the Biolayer Interferometry (BLI) technique using an Octet Red 96e (Fortebio) system. Human CD3E (Acro, CDE-H5223), cynomolgus CD3E (Acro, CDE-C5226) and murine CD3E (Acro, CDE-M5256) were mixed with biotin (Thermo Scientific, A39257) in a molar ratio of 1:3. The mixture was incubated at 4° C. overnight, and then excess biotin was removed to obtain biotinylated CD3E. The rotation speed was set at 1000 rpm for the system. […] After being equilibrated in the buffer for 120 s, the SA sensor with captured CD3 was allowed to bind to 2-fold serially diluted antibodies. […] Finally, the SA sensor was immersed in a 10 mM glycine-hydrochloric acid solution at pH 1.5 for regeneration to elute the antibodies bound to the sensor. […] For the interactions of fast binding and fast dissociation, the “steady state” method was selected to fit the data to obtain KD(M) values.

Test [2] has as its target Human CD16a(F) (human, UniProt P08637 17-208). As to the kind of experiment: BLI (Octet), antibody on FAB2G sensor.
Description: (§1) The binding kinetics between proteins and antibodies was analyzed by the Biolayer Interferometry (BLI) technique using an Octet Red 96e (Fortebio) system. The rotation speed was set at 1000 rpm for the system. […] After equilibrated in the buffer for 120 s, the FAB2G sensor was allowed to bind to 2-fold serially diluted human Fc receptor protein. Finally, the FAB2G sensor was immersed in a 10 mM glycine-hydrochloric acid solution at pH 1.5 for regeneration to elute the proteins bound to the sensor. The affinity assays of antibodies for FcRn were performed under the conditions of both pH 6.0 buffer and pH 7.4 buffer. […] For the interactions of fast binding and fast dissociation, the “steady state” method was selected to fit the data to obtain KD(M) values.
Test [3] concerns the target T2, Human CD32b (human, UniProt P31994 46-217, limits assumed).
T2 sequence (looked up): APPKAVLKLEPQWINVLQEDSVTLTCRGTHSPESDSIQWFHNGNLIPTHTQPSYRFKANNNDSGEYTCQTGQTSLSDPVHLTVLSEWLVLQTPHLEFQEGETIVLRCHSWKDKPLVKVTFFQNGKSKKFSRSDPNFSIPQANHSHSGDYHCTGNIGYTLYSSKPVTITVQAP
Briefly: BLI (Octet), antibody on FAB2G sensor.
Description: as §1

Test [4] deals with Human CD16a(V) (human, UniProt P08637 17-208). As to the kind of experiment: BLI (Octet), antibody on FAB2G sensor.
Description: as §1
In test [5] the target is T3, Human CD32a(H) (human, UniProt P12318 36-218, limits assumed).
T3 sequence (looked up): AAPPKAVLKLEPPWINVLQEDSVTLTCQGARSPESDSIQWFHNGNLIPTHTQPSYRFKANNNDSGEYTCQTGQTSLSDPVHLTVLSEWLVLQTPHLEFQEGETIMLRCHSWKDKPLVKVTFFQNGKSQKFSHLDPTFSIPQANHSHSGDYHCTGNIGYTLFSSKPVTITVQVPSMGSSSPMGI
Briefly: BLI (Octet), antibody on FAB2G sensor.
Description: as §1

The target in test [6] is T4, Human CD64 (human, UniProt P12314 16-288, limits assumed).
T4 construct: bought recombinant protein
Briefly: BLI (Octet), antibody on FAB2G sensor.
Description: as §1

Test [7] addresses T5, human CLDN4 (human, UniProt O14493 1-209).
T5 construct: whole, on cells; also called hCLDN4
T5 sequence (looked up): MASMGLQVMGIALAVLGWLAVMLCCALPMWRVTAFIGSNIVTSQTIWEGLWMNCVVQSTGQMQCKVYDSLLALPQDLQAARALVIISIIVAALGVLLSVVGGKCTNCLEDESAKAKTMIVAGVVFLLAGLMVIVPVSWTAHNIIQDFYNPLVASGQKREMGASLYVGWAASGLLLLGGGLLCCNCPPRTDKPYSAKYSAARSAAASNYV
As to the kind of experiment: FACS on HEK293 cells transiently expressing human CLDN4.
Description: Antibodies were assayed for binding affinity to human CLDN18.2 paralogous proteins by FACS (ACEA NovoCyte). CLDN1, CLDN2, CLDN3, CLDN4, CLDN6 and CLDN9 genes of the human CLDN18.2 paralogous family were transiently transfected into HEK293 cells. […] The cell density was adjusted to 10⁶ cells/mL, and 50 μL of the cell suspension was added to each well of a 96-well plate. An antibody was diluted to 60 nM with FACS buffer, and 50 μL of the antibody dilution was added to each well of the 96-well plate. After 2 h of incubation at 4° C., the plate was washed twice with FACS buffer. Then, an FACS buffer containing a secondary antibody was added. After 1 h of incubation at 4° C., the plate was washed twice with FACS buffer. The cells were resuspended in fixative solution, and run FACS.

The target of test [8] is human CLDN18.2 (human). As to the kind of experiment: cell-based or functional assay.

The results in this text go back to patent US20250340631A1 (HARBOUR BIOMED SHANGHAI, published 2025).

T4 sequence (P12314 16-288 limits assumed): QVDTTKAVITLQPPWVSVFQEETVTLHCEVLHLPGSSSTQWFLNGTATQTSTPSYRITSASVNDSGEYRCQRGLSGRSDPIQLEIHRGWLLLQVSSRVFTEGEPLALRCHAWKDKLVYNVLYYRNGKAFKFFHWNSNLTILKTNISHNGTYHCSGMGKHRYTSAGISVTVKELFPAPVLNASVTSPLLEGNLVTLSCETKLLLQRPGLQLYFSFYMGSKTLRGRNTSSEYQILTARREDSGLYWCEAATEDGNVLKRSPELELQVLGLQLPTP
Chain of Human CD16a(F) (P08637 17-208 limits assumed): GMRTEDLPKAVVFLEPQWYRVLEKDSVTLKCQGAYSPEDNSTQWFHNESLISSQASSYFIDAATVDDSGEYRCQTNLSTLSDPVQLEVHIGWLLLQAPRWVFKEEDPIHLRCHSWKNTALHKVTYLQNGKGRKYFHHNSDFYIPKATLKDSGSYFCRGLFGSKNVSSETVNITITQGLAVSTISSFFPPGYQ
Chain of Human CD16a(V) (P08637 17-208 F176V limits assumed): as the sequence (P08637 17-208 limits assumed) above, with F160V counted along it
T1 sequence (P22646 22-108, chain 1 of 2): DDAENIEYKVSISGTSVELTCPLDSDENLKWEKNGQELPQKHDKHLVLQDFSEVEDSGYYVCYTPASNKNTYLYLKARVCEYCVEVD
T1 sequence (P04235 22-105, chain 2 of 2): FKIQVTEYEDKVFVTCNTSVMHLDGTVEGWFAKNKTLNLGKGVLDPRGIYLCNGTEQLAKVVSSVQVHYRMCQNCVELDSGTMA

B1: PR006292 (bispecific antibody, human IgG1, lambda)
chain: EVQLVESGGGLVQPGGSLRLSCAASGFTFSSYWMHWVRQVPGKGLVWVSRISSDASRTIYADSVKGRFTISRDNAKNTLYLQMNSLRAEDTAVYYCARGEDHDILTGYPIRGQGTTVTVSSGGGGSGGGGSGGGGSEVQLVESGGGLVQPGGSLRLSCAASGFTFSSYWMHWVRQVPGKGLVWVSRISSDASRTIYADSVKGRFTISRDNAKNTLYLQMNSLRAEDTAVYYCARGEDHDILTGYPIRGQGTTVTVSSASEPKSSDKTHTCPPCPAPEAAGAPSVFLFPPKPKDTLMISRTPEVTCVVVDVSHEDPEVKFNWYVDGVEVHNAKTKPREEQYNSTYRVVSVLTVLHQDWLNGKEYKCKVSNKALPAPIEKTISKAKGQPREPQVCTLPPSREEMTKNQVSLSCAVKGFYPSDIAVEWESNGQPENNYKTTPPVLDSDGSFFLVSKLTVDKSRWQQGNVFSCSVMHEALHNHYTQKSLSLSPGK
heavy: EVQLVESGGGLVQPGGSLKLSCAASGFTFSTYAMNWVRQASGKGLEWVGRIRSKYNNYATYYADSVKDRFTISRDDSKNTAYLQMNSLKTEDTAVYYCTRHGNFGNSYVSWFAYWGQGTLVTVSSASTKGPSVFPLAPSSKSTSGGTAALGCLVKDYFPEPVTVSWNSGALTSGVHTFPAVLQSSGLYSLSSVVTVPSSSLGTQTYICNVNHKPSNTKVDKKVEPKSCDKTHTCPPCPAPEAAGAPSVFLFPPKPKDTLMISRTPEVTCVVVDVSHEDPEVKFNWYVDGVEVHNAKTKPREEQYNSTYRVVSVLTVLHQDWLNGKEYKCKVSNKALPAPIEKTISKAKGQPREPQVYTLPPCREEMTKNQVSLWCLVKGFYPSDIAVEWESNGQPENNYKTTPPVLDSDGSFFLYSKLTVDKSRWQQGNVFSCSVMHEALHNHYTQKSLSLSPGK
light: QAVVTQEPSLTVSPGGTVTLTCRSSTGAVTTSNYANWVQQKPGQAPRGLIGGTNKRAPWTPARFSGSLLGDKAALTLLGAQPEDEAEYFCALWYSNLWVFGGGTKLTVLGQPKAAPSVTLFPPSSEELQANKATLVCLISDFYPGAVTVAWKADSSPVKAGVETTTPSKQSNNKYAASSYLSLTPEQWKSHRSYSCQVTHEGSTVEKTVAPTECS
notes: structure 1; CD3 Fab from PR003886, CLDN18.2 VH from PR007245; IgG1 knob/hole, AAA (L234A, L235A, G237A)
In the case of B1, the binding result is reported as “no binding (tested: 120-7.5 nM)” in test [1]; “no binding (tested: 10000-625 nM)” in test [2]; “no binding (tested: 10000-625 nM)” in test [3]; “no binding (tested: 6000-375 nM)” in test [4]; “no binding (tested: 10000-625 nM)” in test [5]; “no binding (tested: 800-50 nM)” in test [6]. Moreover, the binding result in test [7] is “no binding”. Besides, the “CDC, EC50 (nM), HEK293/hCLDN18.2” value in test [8] was found to be 37.1 nM.

B2: PR006384 (bispecific antibody, human IgG1, lambda)
chain: EVQLVESGGGLVQPGGSLRLSCAASGFTFSSYWMHWVRQVPGKGLVWVSRISSTGSRTIYADSVKGRFTISRDNAKNTLYLQMNSLRAEDTAVYYCARGEDHDILTGYPIRGQGTTVTVSSGGGGSGGGGSGGGGSEVQLVESGGGLVQPGGSLRLSCAASGFTFSSYWMHWVRQVPGKGLVWVSRISSTGSRTIYADSVKGRFTISRDNAKNTLYLQMNSLRAEDTAVYYCARGEDHDILTGYPIRGQGTTVTVSSASEPKSSDKTHTCPPCPAPEAAGAPSVFLFPPKPKDTLMISRTPEVTCVVVDVSHEDPEVKFNWYVDGVEVHNAKTKPREEQYNSTYRVVSVLTVLHQDWLNGKEYKCKVSNKALPAPIEKTISKAKGQPREPQVCTLPPSREEMTKNQVSLSCAVKGFYPSDIAVEWESNGQPENNYKTTPPVLDSDGSFFLVSKLTVDKSRWQQGNVFSCSVMHEALHNHYTQKSLSLSPGK
heavy: EVQLVESGGGLVQPGGSLKLSCAASGFTFSTYAMNWVRQASGKGLEWVGRIRSKYNNYATYYADSVKDRFTISRDDSKNTAYLQMNSLKTEDTAVYYCTRHGNFGNSYVSWFAYWGQGTLVTVSSASTKGPSVFPLAPSSKSTSGGTAALGCLVKDYFPEPVTVSWNSGALTSGVHTFPAVLQSSGLYSLSSVVTVPSSSLGTQTYICNVNHKPSNTKVDKKVEPKSCDKTHTCPPCPAPEAAGAPSVFLFPPKPKDTLMISRTPEVTCVVVDVSHEDPEVKFNWYVDGVEVHNAKTKPREEQYNSTYRVVSVLTVLHQDWLNGKEYKCKVSNKALPAPIEKTISKAKGQPREPQVYTLPPCREEMTKNQVSLWCLVKGFYPSDIAVEWESNGQPENNYKTTPPVLDSDGSFFLYSKLTVDKSRWQQGNVFSCSVMHEALHNHYTQKSLSLSPGK
light: QAVVTQEPSLTVSPGGTVTLTCRSSTGAVTTSNYANWVQQKPGQAPRGLIGGTNKRAPWTPARFSGSLLGDKAALTLLGAQPEDEAEYFCALWYSNLWVFGGGTKLTVLGQPKAAPSVTLFPPSSEELQANKATLVCLISDFYPGAVTVAWKADSSPVKAGVETTTPSKQSNNKYAASSYLSLTPEQWKSHRSYSCQVTHEGSTVEKTVAPTECS
notes: structure 1; CD3 Fab from PR003886, CLDN18.2 VH from PR007246; AAA
For B2, the binding result is “no binding (tested: 120-7.5 nM)” in test [1]; “no binding (tested: 10000-625 nM)” in test [2]; “no binding (tested: 10000-625 nM)” in test [3]; “no binding (tested: 6000-375 nM)” in test [4]; “no binding (tested: 10000-625 nM)” in test [5]; “no binding (tested: 800-50 nM)” in test [6]. In addition, the binding result in test [7] is reported as “no binding”.
